Data taken from article PMC3575409, “Identification of a Novel Protein-Protein Interaction Motif Mediating Interaction of GPCR-Associated Sorting Proteins with G Protein-Coupled Receptors” (PLoS ONE, 2013).
Blank lines part the entries; values can stand above or below the binder they belong to.

Legend:
[1] = target: GST-fused C-tail of the δ-opioid receptor (residues 314–372); assay: pull-down; GST-fused receptor C-tails immobilized on glutathione-Sepharose beads, incubated with [35S]-labelled in vitro translated GASPs 1 h at 4°C; 20 mM Tris-HCl pH 7.4, 150 mM NaCl, 1 mM EDTA, 1 mM DTT, 10% glycerol, 1% Triton X-100; Phosphor-imager quantification
[2] = target: GST-fused C-tail of the β1 adrenergic receptor (residues 373–477); assay: pull-down; data not shown; GST-ADRB1 C-tail with GASP-1 fragment 924–1395
[3] = target: the four receptor C-tails (ADRB1, M1, CALCR and TXA2); assay: pull-down; competition: synthetic peptide (1 to 250 µM, or 150 µM) against [35S]-labelled GASPs for GST-fused C-tails; the peptide and the C-tail
[4] = target: GST-fused C-tail of the β1 adrenergic receptor (residues 373–477); assay: as above
[5] = target: all three receptor C-tails (ADRB1, M1 and CALCR); assay: pull-down; GST-fused receptor C-tails immobilized on glutathione-Sepharose beads, incubated with [35S]-labelled in vitro translated GASPs 1 h at 4°C; 20 mM Tris-HCl pH 7.4, 150 mM NaCl, 1 mM EDTA, 1 mM DTT, 10% glycerol, 1% Triton X-100; Phosphor-imager quantification
[6] = target: GST-fused C-tail of the muscarinic M1 acetylcholine receptor (residues 414–460); assay: as above
[7] = target: GST-fused C-tail of the β1 adrenergic receptor (residues 373–477); assay: as above
[8] = target: GST-fused C-tail of the insulin growth factor I receptor (residues 1268–1367); assay: as above
[9] = target: GST-fused C-tail of the histamine 2 receptor (residues 284–349); assay: as above
[10] = target: T1, GST-fused C-tail of the calcitonin receptor (residues 407–490); assay: as above
T1 sequence (P30988 whole entry, species assumed, looked up): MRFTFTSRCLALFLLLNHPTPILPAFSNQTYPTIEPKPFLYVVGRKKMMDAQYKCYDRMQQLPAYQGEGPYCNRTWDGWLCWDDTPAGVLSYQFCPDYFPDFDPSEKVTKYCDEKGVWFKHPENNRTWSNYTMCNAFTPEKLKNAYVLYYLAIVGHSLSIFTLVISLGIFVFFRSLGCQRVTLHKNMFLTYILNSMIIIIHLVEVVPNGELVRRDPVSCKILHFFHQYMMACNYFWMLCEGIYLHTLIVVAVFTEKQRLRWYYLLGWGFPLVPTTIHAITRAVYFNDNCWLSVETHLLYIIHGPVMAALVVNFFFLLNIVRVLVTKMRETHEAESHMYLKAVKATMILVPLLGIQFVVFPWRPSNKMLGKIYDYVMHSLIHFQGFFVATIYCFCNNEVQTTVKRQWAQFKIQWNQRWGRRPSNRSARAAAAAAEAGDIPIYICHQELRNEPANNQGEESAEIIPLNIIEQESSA

[11] = target: GST-fused C-tail of the α isoform of the thromboxane A2 receptor (residues 304–343); assay: as above
free GST = assay: as above
[12] = target: GST-fused C-tail of the type III transforming growth factor β receptor (residues 805–849); assay: as above
Chain of GST-fused C-tail of the type III transforming growth factor β receptor (residues 805–849) (Q03167 805-849): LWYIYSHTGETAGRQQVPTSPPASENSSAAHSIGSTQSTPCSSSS

Chain of GST-fused C-tail of the histamine 2 receptor (residues 284–349) (P25021 284-349): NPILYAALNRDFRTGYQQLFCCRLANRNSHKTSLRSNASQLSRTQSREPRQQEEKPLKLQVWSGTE
Chain of GST-fused C-tail of the insulin growth factor I receptor (residues 1268–1367) (P08069 1268-1367): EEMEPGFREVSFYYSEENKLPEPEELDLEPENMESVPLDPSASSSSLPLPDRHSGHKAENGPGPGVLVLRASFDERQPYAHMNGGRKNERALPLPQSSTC

percent of the full-length GASP-1 interaction (% of the full-length GASP-1 interaction) [1]: 25
B1: GASP-1 truncated mutant 1025–1395 (conserved C-terminal domain) (domain or fragment)
chain: ICRSTCSVEQEPDPSRRPQSWEEVTVQFKPGPWGRVGFPSISPFRFPKEAASLFCEMFGGKPRNMVLSPEGEDQESLLQPDQPSPEFPFQYDPSYRSVQEIREHLRAKESTEPESSSCNCIQCELKIGSEEFEELLLLMEKIRDPFIHEISKIAMGMRSASQFTRDFIRDSGVVSLIETLLNYPSSRVRTSFLENMIRMAPPYPNLNIIQTYICKVCEETLAYSVDSPEQLSGIRMIRHLTTTTDYHTLVANYMSGFLSLLATGNAKTRFHVLKMLLNLSENLFMTKELLSAEAVSEFIGLFNREETNDNIQIVLAIFENIGNNIKKETVFSDDDFNIEPLISAFHKVEKFAKELQGKTDNQNDPEGDQEN
modifications: [35S]-methionine labelled

percent of input retained (% of the input) [2]: 5
B2: GASP-1 fragment corresponding to amino acids 924 to 1395 (domain or fragment)
chain: CCVSKPEDDEEMIVESWFWSRDKAIKETGTVATCESKPENEEGAIVGSWFEAEDEVDNRTDNGSNCGSRTLADEDEAIVGSWFWAGDEAHFESNPSPVFRAICRSTCSVEQEPDPSRRPQSWEEVTVQFKPGPWGRVGFPSISPFRFPKEAASLFCEMFGGKPRNMVLSPEGEDQESLLQPDQPSPEFPFQYDPSYRSVQEIREHLRAKESTEPESSSCNCIQCELKIGSEEFEELLLLMEKIRDPFIHEISKIAMGMRSASQFTRDFIRDSGVVSLIETLLNYPSSRVRTSFLENMIRMAPPYPNLNIIQTYICKVCEETLAYSVDSPEQLSGIRMIRHLTTTTDYHTLVANYMSGFLSLLATGNAKTRFHVLKMLLNLSENLFMTKELLSAEAVSEFIGLFNREETNDNIQIVLAIFENIGNNIKKETVFSDDDFNIEPLISAFHKVEKFAKELQGKTDNQNDPEGDQEN
modifications: [35S]-methionine labelled

percent of GASP-1, -2 and -7 retained with 150 µM GASP peptide, of the control without peptide [3]: 6 to 35 % of control
percent inhibition of GASP-2 binding at 100 µM peptide [4]: 65%
percent inhibition of GASP-2 binding at 250 µM peptide [4]: 76%
Binder: RVKQEPRFEEEVIIGSWFWAEKEA [GASP peptide]

percent of the full-length GASP-2 interaction (% of the full-length GASP-2 interaction) [5]: 30 to 60
B3: GASP-2 truncated mutant 377–838 (domain or fragment)
chain: QEPRFEEEVIIGSWFWAEKEASLEGGASAICESEPGTEEGAIGGSAYWAEEKSSLGAVAREEAKPESEEEAIFGSWFWDRDEACFDLNPCPVYKVSDRFRDAAEELNASSRPQTWDEVTVEFKPGLFHGVGFRSTSPFGIPEEASEMLEAKPKNLELSPEGEEQESLLQPDQPSPEFTFQYDPSYRSVREIREHLRARESAESESWSCSCIQCELKIGSEEFEEFLLLMDKIRDPFIHEISKIAMGMRSASQFTRDFIRDSGVVSLIETLLNYPSSRVRTSFLENMIHMAPPYPNLNMIETFICQVCEETLAHSVDSLEQLTGIRMLRHLTMTIDYHTLIANYMSGFLSLLTTANARTKFHVLKMLLNLSENPAVAKKLFSAKALSIFVGLFNIEETNDNIQIVIKMFQNISNIIKSGKMSLIDDDFSLEPLISAFREFEELAKQLQAQIDNQNDPEVGQQS
modifications: [35S]-methionine labelled

percent of the full-length GASP-1 interaction (% of the full-length GASP-1 interaction) [6]: 70
percent of the full-length GASP-1 interaction (% of the full-length GASP-1 interaction) [1]: 30
percent of the full-length GASP-1 interaction (% of the full-length GASP-1 interaction) [7]: 70
B4: GASP-1 truncated mutant 380–1073 (central domain), in vitro translated (domain or fragment)
chain: MTKEEAKTKARARAKQEARSEEEALIGTWFWATDESSMADEASIESSLQVEDESIIGSWFWTEEEASMGTGASSKSRPRTDGERIGDSLFGAREKTSMKTGAEATSESILAADDEQVIIGSWFWAGEEVNQEAEEETIFGSWFWVIDAASVESGVGVSCESRTRSEEEEVIGPWFWSGEQVDIEAGIGEEARPGAEEETIFGSWFWAENQTYMDCRAETSCDTMQGAEEEEPIIGSWFWTRVEACVEGDVNSKSSLEDKEEAMIPCFGAKEEVSMKHGTGVRCRFMAGAEETNNKSCFWAEKEPCMYPAGGGSWKSRPEEEEDIVNSWFWSRKYTKPEAIIGSWLWATEESNIDGTGEKAKLLTEEETIINSWFWKEDEAISEATDREESRPEAEEGDIIGSWFWAGEEDRLEPAAETREEDRLAAEKEGIVGSWFGAREETIRREAGSCSKSSPKAEEEEVIIGSWFWEEEASPEAVAGVGFESKPGTEEEEITVGSWFWPEEEASIQAGSQAVEEMESETEEETIFGSWFWDGKEVSEEAGPCCVSKPEDDEEMIVESWFWSRDKAIKETGTVATCESKPENEEGAIVGSWFEAEDEVDNRTDNGSNCGSRTLADEDEAIVGSWFWAGDEAHFESNPSPVFRAICRSTCSVEQEPDPSRRPQSWEEVTVQFKPGPWGRVGFPSISPFRFPKE
modifications: [35S]-methionine labelled

percent of GASP input retained (% of GASP input) [8]: < 1
percent of GASP input retained (% of GASP input) [9]: 2
percent of GASP input retained (% of GASP input) [6]: 2
percent of GASP input retained (% of GASP input) [10]: 2
percent of GASP input retained (% of GASP input) [11]: 2
percent of GASP input retained (% of GASP input) [1]: 2
percent of GASP input retained (% of GASP input) (free GST): < 1
percent of GASP input retained (% of GASP input) [12]: < 1
percent of GASP input retained (% of GASP input) [7]: 2
B5: GASP-6 (natural protein)
chain: MGYARKVGWVTAGLVIGAGACYCIYRLTRGRKQNKEKMAEGGSGDVDDAGDCSGARYNDWSDDDDDSNESKSIVWYPPWARIGTEAGTRARARARARATRARRAVQKRASPNSDDTVLSPQELQKVLCLVEMSEKPYILEAALIALGNNAAYAFNRDIIRDLGGLPIVAKILNTRDPIVKEKALIVLNNLSVNAENQRRLKVYMNQVCDDTITSRLNSSVQLAGLRLLTNMTVTNEYQHMLANSISDFFRLFSAGNEETKLQVLKLLLNLAENPAMTRELLRAQVPSSLGSLFNKKENKEVILKLLVIFENINDNFKWEENEPTQNQFGEGSLFFFLKEFQVCADKVLGIESHHDFLVKVKVGKFMAKLAEHMFPKSQE
modifications: [35S]-methionine labelled
